Laboratory results published in publication PMC10993888.

B1: SPA1-M12 (XNA)
DNA: GGGTGAATCTATGGGGTGGGCAGGGG
B2: SPA1-M13 (XNA)
DNA: GGGTGAATCTATGGGGTGGGCAGGGG

Legend:
[1] = biological target: SARS-CoV-2 spike S1 subunit (SARS-CoV-2, UniProt P0DTC2 16-685); test: SPR; details: protein: commercial
MERS-CoV RBD = MERS-CoV RBD (MERS-CoV, UniProt K9N5Q8 367-606); details: protein: commercial; label: 3'-biotin-TEG (SPR)
SARS-CoV-1 RBD = SARS-CoV-1 RBD (SARS-CoV-1, UniProt P59594 306-527); details: protein: commercial; label: 3'-biotin-TEG (SPR)

Binder	binding result [1]	Kd (MERS-CoV RBD) [nM]	Kd (SARS-CoV-1 RBD) [nM]
B1	binds		
B2		4	8.7
